One molecule from PMC8111002 (Communications Biology, 2021) can be followed below.

The series “crystal structure” deals with the molecule itself. The series can be described thus: crystal structure.
The target in a further series is Stx2a A-subunit (enterohemorrhagic Escherichia coli, UniProt P09385 23-319). The experiment in a line: crystal structure. The settings on record: both partners purified.

B1: Stx2a B-subunit pentamer of the holotoxin (untagged) (natural protein)
chain: ADCAKGKIEFSKYNEDDTFTVKVDGKEYWTSRWNLQPLLQSAQLTGMTVTIKSSTCESGSGFAEVQFNND
In the case of B1, the binding result in “crystal structure” and with Stx2a A-subunit was “binds” in each case.
